This is an account of results in paper PMC11618376 (Nature Communications, 2024).

The target in the test is T1, Gdi1 (yeast, UniProt P39958 1-451).
T1 sequence (looked up): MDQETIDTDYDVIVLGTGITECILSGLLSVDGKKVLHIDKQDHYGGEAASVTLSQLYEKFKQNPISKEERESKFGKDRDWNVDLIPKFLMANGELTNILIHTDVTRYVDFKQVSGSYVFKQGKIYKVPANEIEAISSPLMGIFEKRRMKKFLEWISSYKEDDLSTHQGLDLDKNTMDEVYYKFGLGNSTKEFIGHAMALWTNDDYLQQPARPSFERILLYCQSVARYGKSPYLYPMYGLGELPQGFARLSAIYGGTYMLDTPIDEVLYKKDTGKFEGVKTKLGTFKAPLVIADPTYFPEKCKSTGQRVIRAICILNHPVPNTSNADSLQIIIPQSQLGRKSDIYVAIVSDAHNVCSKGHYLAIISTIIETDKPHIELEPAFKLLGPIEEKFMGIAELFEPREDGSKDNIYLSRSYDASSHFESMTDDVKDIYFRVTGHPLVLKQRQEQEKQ
The test can be described thus: SEC. Background: SEC sorts molecules by how far they enter the pores of the column.

B1: prenylated Rab6-mantGDP (natural protein, S. cerevisiae, UniProt Q99260 1-215, looked up)
chain: MSRSGKSLTKYKIVFLGEQGVGKTSLITRFMYDTFDDHYQATIGIDFLSKTMYLDDKTIRLQLWDTAGQERFRSLIPSYIRDSRVAIIVYDITKRKSFEYIDKWIEDVKNERGDENVILCIVGNKSDLSDERQISTEEGEKKAKLLGAKIFMETSTKAGYNVKALFKKIAKSLPEFQNSESTPLDSENANSANQNKPGVIDISTAEEQEQSACQC
modifications: C-terminal cysteines prenylated (geranylgeranyl)
B1: the binding result is given as “binds”.
